Data reported in publication PMC6893399.

Tests used:
[1] = open-field test; details: glycan lost; control: wild-type littermates
[2] = maximum speed, NOR test phase; details: glycan lost; control: wild-type littermates
[3] = distance travelled, NOR test phase; details: glycan lost; control: wild-type littermates
[4] = histology, four points along cortex; details: glycan lost; control: wild-type littermates
[5] = total CRMP2 western blot, brain lysate; details: glycan lost; control: wild-type mice
[6] = histology, lateral and third ventricles; details: glycan lost; control: wild-type littermates
[7] = spontaneous alternation, enclosed plus maze; details: glycan lost; control: wild-type littermates
[8] = P509/514-CRMP2 antibody western blot, brain lysate; details: glycan lost; control: wild-type mice
[9] = 3F4 (P509/514/518/522) antibody western blot, brain lysate; details: glycan lost; control: wild-type mice

Substance: CRMP2: Crmp2S517A
- other: anxiety and locomotor activity [1]: no change
- other: locomotion during NOR test phase, other: speed [2]: decreases, 0.124 ± 0.017 vs 0.145 ± 0.027
- other: locomotion during NOR test phase, other: distance [3]: decreases, 9.4 ± 2.0 vs 12.8 ± 3.4
- other: cortical thickness, other: thickness [4]: no change, 1127 ± 93.24 vs 1197 ± 175.4
- expression_or_secretion [5]: no change
- other: brain ventricular volume, other: volume [6]: no change, 4.160 ± 1.252 vs 3.592 ± 1.155
- other: spatial working memory [7]: no change
- other: CRMP2 phosphorylation at GSK3β sites [8]: no change
- other: CRMP2 phosphorylation at GSK3β sites [9]: no change
